Source: patent US20090074722A1, “Products and methods for treating PTP lar diseases” (MAX-PLANCK-GESELLSCHAFT ZUR, priority 1999, published 2009)

Target: T1, tyrosine phosphorylated β-catenin (Homo sapiens, UniProt P35222)
T1 construct: expressed in transfected cells; host or cells: human 293 embryonic kidney cells, transient; CMV-promoter vector; immunoprecipitated with anti-β-catenin antibody
T1 sequence (P35222 1-781): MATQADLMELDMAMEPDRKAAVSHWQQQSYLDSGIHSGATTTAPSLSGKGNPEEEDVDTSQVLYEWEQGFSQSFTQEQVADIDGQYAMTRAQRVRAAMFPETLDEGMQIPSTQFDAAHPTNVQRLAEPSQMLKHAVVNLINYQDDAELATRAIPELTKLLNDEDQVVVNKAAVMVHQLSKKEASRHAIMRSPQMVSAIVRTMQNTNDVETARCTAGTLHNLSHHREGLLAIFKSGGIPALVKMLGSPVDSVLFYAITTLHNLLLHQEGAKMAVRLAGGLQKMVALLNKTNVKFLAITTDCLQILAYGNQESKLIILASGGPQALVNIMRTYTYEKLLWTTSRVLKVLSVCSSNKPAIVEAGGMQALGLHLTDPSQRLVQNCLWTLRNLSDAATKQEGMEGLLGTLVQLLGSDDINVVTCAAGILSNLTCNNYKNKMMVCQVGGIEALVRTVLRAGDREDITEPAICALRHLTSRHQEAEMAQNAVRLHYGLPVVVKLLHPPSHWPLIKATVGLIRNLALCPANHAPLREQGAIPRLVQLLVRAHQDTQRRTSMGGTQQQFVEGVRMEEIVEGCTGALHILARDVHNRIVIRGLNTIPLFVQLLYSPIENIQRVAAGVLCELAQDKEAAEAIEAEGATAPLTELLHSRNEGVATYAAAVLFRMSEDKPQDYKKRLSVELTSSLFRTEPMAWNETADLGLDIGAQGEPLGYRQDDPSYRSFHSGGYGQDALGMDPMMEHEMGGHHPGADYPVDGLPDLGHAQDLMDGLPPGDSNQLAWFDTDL
Test: In vitro dephosphorylation assay
Assay type: biochemical
Conditions: 200 ng GST fusion protein, 25° C.; within the first five minutes; anti-phosphotyrosine Western blot
Description: After 24 h of serum starvation, the cells were stimulated with pervanadate before lysis. β-catenin was subsequently immunoprecipitated with an anti-β-catenin antibody, and precipitates were incubated for the indicated time intervals with GST-PTP LAR cytoplasmic fusion protein (left), GST-PTP LAR PTP D1 C1522S-mutant (middle) or GST-PTP LAR PTP D2 C1813S-mutant (right). Reactions were terminated after the indicated periods of time, and proteins were separated by SDS-PAGE. Tyrosine phosphorylation levels of […] were analyzed by Western blotting with an anti-phosphotyrosine antibody (top). […] Arrows indicate the proteins of interest.
In Vitro Dephosphorylation Assay—β-catenin was transiently overexpressed in human 293 embryonic kidney cells. Cells were serum-starved, treated with pervanadate ([…]/0.1 mM Na-orthovanadate) for 10 minutes and lysed. Immunoprecipitations were performed as described above except that HNTG without pyrophosphate, ammonium-molybdate, and Na-orthovanadate was used. PTP activity towards tyrosine phosphorylated β-catenin was assayed in 200 μL reactions at 25° C. containing 25 mM HEPES, pH 7.5, 5 mM EDTA, 10 mM DTT, and 1 mg/mL BSA with 200 ng of GST-hPTP LAR cytoplasmic, GST-hPTP LAR D1 C1522S, or GST-hPTP LAR D2 C1813S added. Reactions were stopped by washing with HNTG and subsequently separated by SDS-PAGE. The tyrosine phosphorylation status was analyzed by Western blotting using anti-phosphotyrosine antibody.
The association of β-catenin and plakoglobin with PTP LAR prompted the investigation of whether these proteins could represent actual substrates for PTP LAR. […] After different time intervals, the reactions were terminated and analyzed with an anti-phosphotyrosine specific antibody.

B1: GST-PTP LAR cytoplasmic: GST fusion protein comprising the entire cytoplasmic domain (amino acids 1259-1881) of human PTP LAR (protein)
chain: PEMLWVTGPVLAVILIILIVIAILLFKRKRTHSPSSKDEQSIGLKDSLLAHSSDPVEMRRLNYQTPGMRDHPPIPITDLADNIERLKANDGLKFSQEYESIDPGQQFTWENSNLEVNKPKNRYANVIAYDHSRVILTSIDGVPGSDYINANYIDGYRKQNAYIATQGPLPETMGDFWRMVWEQRTATVVMMTRLEEKSRVKCDQYWPARGTETCGLIQVTLLDTVELATYTVRTFALHKSGSSEKRELRQFQFMAWPDHGVPEYPTPILAFLRRVKACNPLDAGPMVVHCSAGVGRTGCFIVIDAMLERMKHEKTVDIYGHVTCMRSQRNYMVQTEDQYVFIHEALLEAATCGHTEVPARNLYAHIQKLGQVPPGESVTAMELEFKLLASSKAHTSRFISANLPCNKFKNRLVNIMPYELTRVCLQPIRGVEGSDYINASFLDGYRQQKAYIATQGPLAESTEDFWRMLWEHNSTIIVMLTKLREMGREKCHQYWPAERSARYQYFVVDPMAEYNMPQYILREFKVTDARDGQSRTIRQFQFTDWPEQGVPKTGEGFIDFIGQVHKTKEQFGQDGPITVHCSAGVGRTGVFITLSIVLERMRYEGVVDMFQTVKTLRTQRPAM
B1 was tested, and the “tyrosine phosphorylation signal of β-catenin” value was “significant reduction in the tyrosine phosphorylation signal”.
